Reference: paper PMC3576407, “N332-Directed Broadly Neutralizing Antibodies Use Diverse Modes of HIV-1 Recognition: Inferences from Heavy-Light Chain Complementation of Function” (PLoS ONE, 2013)

B1: PGT121 (wild-type IgG, PGT121 heavy chain with PGT121 light chain) (antibody, V domains shown)
VH: QMQLQESGPGLVKPSETLSLTCSVSGASISDSYWSWIRRSPGKGLEWIGYVHKSGDTNYSPSLKSRVNLSLDTSKNQVSLSLVAATAADSGKYYCARTLHGRRIYGIVAFNEWFTYFYMDVWGNGTQVTVSS
VL: DISVAPGETARISCGEKSLGSRAVQWYQHRAGQAPSLIIYNNQDRPSGIPERFSGSPDSPFGTTATLTITSVEAGDEADYYCHIWDSRVPTKWVFGGGTTLTVL
notes: PGT121 heavy chain; PGT121 light chain; also called PGT121-H/PGT121-L; source: HEK 293T cells (methods; the results say 293F), transient transfection in 96-well microplates, supernatant used directly
B2: PGT128 (wild-type IgG, PGT128 heavy chain with PGT128 light chain) (antibody, V domains shown)
VH: QPQLQESGPTLVEASETLSLTCAVSGDSTAACNSFWGWVRQPPGKGLEWVGSLSHCASYWNRGWTYHNPSLKSRLTLALDTPKNLVFLKLNSVTAADTATYYCARFGGEVLRYTDWPKPAWVDLWGRGTLVTVSS
VL: QSALTQPPSASGSPGQSITISCTGTSNNFVSWYQQHAGKAPKLVIYDVNKRPSGVPDRFSGSKSGNTASLTVSGLQTDDEAVYYCGSLVGNWDVIFGGGTKLTVL
notes: PGT128 heavy chain; PGT128 light chain; also called PGT128-H/PGT128-L; source: HEK 293T cells (methods; the results say 293F), transient transfection in 96-well microplates, supernatant used directly

How the values were obtained:
Experiment in all cases: ELISA; 200 ng gp120 coated on Maxisorb 96-well plates in PBS overnight at 4°C; blocked with PBS 5% dry milk; 25–50 µl antibody supernatant 1 h at RT; HRP goat anti-human IgG (H+L); TMB, OD450; absorbance normalised by the expression titer
Conditions in all cases: one partner purified
[1] = target: T1, HIV-1 BaL gp120 monomeric protein (HIV-1 subtype B, isolate BaL (clone not …, UniProt Q2MKA8, strain))
T1 construct: gp120 envelope glycoprotein (the gp120 product of Env gp160) of HIV-1 primary isolate BaL, full-length gp120, monomeric

[2] = target: T2, HIV-1 CAAN gp120 monomeric protein (HIV-1 subtype B, isolate CAAN …, UniProt Q5G5U4, strain)
T2 construct: gp120 envelope glycoprotein (the gp120 product of Env gp160) of HIV-1 primary isolate CAAN, full-length gp120, monomeric

[3] = target: T3, HIV-1 YU2 gp120 monomeric protein (HIV-1 clade B, primary isolate YU2, UniProt P35961)
T3 construct: gp120 envelope glycoprotein (the gp120 product of Env gp160) of HIV-1 primary isolate YU2, full-length gp120, monomeric

Binder	binding result [1]	binding result [2]	binding result [3]
B1	binds	binds	–
B2	–	binds	binds
